Results on four proteins are retold here after paper doi:10.1101/2024.07.10.602939 (bioRxiv, 2024).

The data set concerns the molecule itself. The experiment in a line: SEC.

Some results are limits rather than exact numbers.

B1: oxidized Get3 from Saccharomyces cerevisiae (natural protein, UniProt Q12154 1-354, looked up)
chain: MDLTVEPNLHSLITSTTHKWIFVGGKGGVGKTTSSCSIAIQMALSQPNKQFLLISTDPAHNLSDAFGEKFGKDARKVTGMNNLSCMEIDPSAALKDMNDMAVSRANNNGSDGQGDDLGSLLQGGALADLTGSIPGIDEALSFMEVMKHIKRQEQGEGETFDTVIFDTAPTGHTLRFLQLPNTLSKLLEKFGEITNKLGPMLNSFMGAGNVDISGKLNELKANVETIRQQFTDPDLTTFVCVCISEFLSLYETERLIQELISYDMDVNSIIVNQLLFAENDQEHNCKRCQARWKMQKKYLDQIDELYEDFHVVKMPLCAGEIRGLNNLTKFSQFLNKEYNPITDGKVIYELEDKE
modifications: oxidized cysteines (positions not given)
Turning to B1, the binding result is recorded as “binds”.

B2: reduced Get3 from Saccharomyces cerevisiae (natural protein, UniProt Q12154 1-354, looked up)
chain: B1 chain
On to B2, for which the binding result is given as “binds”.

B3: oxidized TRC40 from Danio rerio (natural protein)
chain: not shown
modifications: oxidized cysteines: intra- and intermolecular disulfide bonds (positions not given)
As usually defined, the stoichiometry N is the number of molecules, sites or subunits per partner or assembly. As for B3, the “stoichiometry N” value was at least 4.

B4: reduced TRC40 from Danio rerio (natural protein)
chain: not shown
B4: the “stoichiometry N” value worked out at 2.
